# Data: the supplement of paper PMC5998384
# Tests used:
# HeLa Kyoto [1] = assay: solubility in G1/S (NP-40 vs SDS abundance) (log2 ratio); higher = more soluble; details: cell cycle stage: G1/S
# HeLa Kyoto [2] = assay: solubility change mitosis vs G1/S (difference of NP-40 vs SDS log2 ratios) (log2 ratio difference); higher = more soluble in mitosis
# 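Throughout, for solubility change mitosis vs G1/S (difference of NP-40 vs SDS log2 ratios): synchronized HeLa Kyoto cells (double thymidine block for G1/S, nocodazole release for mitosis), protein amounts in NP-40 versus SDS lysates quantified by mass spectrometry, three biological replicates.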
# 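Throughout, for solubility in G1/S (NP-40 vs SDS abundance): HeLa Kyoto cells arrested at G1/S by double thymidine block, proteins quantified by TMT10plex mass spectrometry in mild NP-40 versus SDS extracts, three biological replicates.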
Sequence,solubility in G1/S (log2) (HeLa Kyoto [1]),solubility change mitosis (log2) (HeLa Kyoto [2])
MAEHAPRRCCLGWDFSTQQVKVVAVDAELNVFYEESVHFDRDLPEFGTQGGVHVHKDGLTVTSPVLMWVQALDIILEKMKASGFDFSQVLALSGAGQQHGSIYWKAGAQQALTSLSPDLRLHQQLQDCFSISDCPVWMDSSTTAQCRQLEAAVGGAQALSCLTGSRAYERFTGNQIAKIYQQNPEAYSHTERISLVSSFAASLFLGSYSPIDYSDGSGMNLLQIQDKVWSQACLGACAPHLEEKLSPPVPSCSVVGAISSYYVQRYGFPPGCKVVAFTGDNPASLAGMRLEEGDIAVSLGTSDTLFLWLQEPMPALEGHIFCNPVDSQHYMALLCFKNGSLMREKIRNESVSRSWSDFSKALQSTEMGNGGNLGFYFDVMEITPEIIGRHRFNTENHKVAAFPGDVEVRALIEGQFMAKRIHAEGLGYRVMSKTKILATGGASHNREILQVLADVFDAPVYVIDTANSACVGSAYRAFHGLAGGTDVPFSEVVKLAPNPRLAATPSPGASQVYEALLPQYAKLEQRILSQTRGPPE [XYLB],-0.242,0.111
MAEKFDHLEEHLEKFVENIRQLGIIVSDFQPSSQAGLNQKLNFIVTGLQDIDKCRQQLHDITVPLEVFEYIDQGRNPQLYTKECLERALAKNEQVKGKIDTMKKFKSLLIQELSKVFPEDMAKYRSIRGEDHPPS [MED10],-0.142,0.446
MAELNTHVNVKEKIYAVRSVVPNKSNNEIVLVLQQFDFNVDKAVQAFVDGSAIQVLKEWNMTGKKKNNKRKRSKSKQHQGNKDAKDKVERPEAGPLQPQPPQIQNGPMNGCEKDSSSTDSANEKPALIPREKKISILEEPSKALRGVTEGNRLLQQKLSLDGNPKPIHGTTERSDGLQWSAEQPCNPSKPKAKTSPVKSNTPAAHLEIKPDELAKKRGPNIEKSVKDLQRCTVSLTRYRVMIKEEVDSSVKKIKAAFAELHNCIIDKEVSLMAEMDKVKEEAMEILTARQKKAEELKRLTDLASQMAEMQLAELRAEIKHFVSERKYDEELGKAARFSCDIEQLKAQIMLCGEITHPKNNYSSRTPCSSLLPLLNAHAATSGKQSNFSRKSSTHNKPSEGKAANPKMVSSLPSTADPSHQTMPANKQNGSSNQRRRFNPQYHNNRLNGPAKSQGSGNEAEPLGKGNSRHEHRRQPHNGFRPKNKGGAKNQEASLGMKTPEAPAHSEKPRRRQHAADTSEARPFRGSVGRVSQCNLCPTRIEVSTDAAVLSVPAVTLVA [SPATS2L],-1.29,1.14
MAEPLLRKTFSRLRGREKLPRKKSDAKERGHPAQRPEPSPPEPEPQAPEGSQAGAEGPSSPEASRSPARGAYLQSLEPSSRRWVLGGAKPAEDTSLGPGVPGTGEPAGEIWYNPIPEEDPRPPAPEPPGPQPGSAESEGLAPQGAAPASPPTKASRTKSPGPARRLSIKMKKLPELRRRLSLRGPRAGRERERAAPAGSVISRYHLDSSVGGPGPAAGPGGTRSPRAGYLSDGDSPERPAGPPSPTSFRPYEVGPAARAPPAALWGRLSLHLYGLGGLRPAPGATPRDLCCLLQVDGEARARTGPLRGGPDFLRLDHTFHLELEAARLLRALVLAWDPGVRRHRPCAQGTVLLPTVFRGCQAQQLAVRLEPQGLLYAKLTLSEQQEAPATAEPRVFGLPLPLLVERERPPGQVPLIIQKCVGQIERRGLRVVGLYRLCGSAAVKKELRDAFERDSAAVCLSEDLYPDINVITGILKDYLRELPTPLITQPLYKVVLEAMARDPPNRVPPTTEGTRGLLSCLPDVERATLTLLLDHLRLVSSFHAYNRMTPQNLAVCFGPVLLPARQAPTRPRARSSGPGLASAVDFKHHIEVLHYLLQSWPDPRLPRQSPDVAPYLRPKRQPPLHLPLADPEVVTRPRGRGGPESPPSNRYAGDWSVCGRDFLPCGRDFLSGPDYDHVTGSDSEDEDEEVGEPRVTGDFEDDFDAPFNPHLNLKDFDALILDLERELSKQINVCL [SYDE1],0.269,0.106
MAESSSESDHFRCRDRLSPWAARSTHRGTRSLPTVEVTEKVNTITSTLQDTSRNLRQVDQMLGRYREYSNGQAGAIEHLKESLEQSIDQLRSQRLLRNSGGRSISVTSLSASDLDGGTGSELHHFPPTSPLKDYGDPQGIKRMRSRTGVRFVQETDDMTQLHGFHQSLRDLSSEQIRLGDDFNRELSRRSRSDAETKRALEELTEKLNEAQKQEVVSDRVERRLQELEREMRTERELVERRQDQLGLMSLQLQEALKKQEAKADEHEGAIKNKLRQTETEKNQLEQELELSRRLLNQSEGSRETLLHQVEELRTQLTKAEGDRKGLQHQVSQISKQQSNYQDEQGEDWRFRRGVEREKQDLEKQMSDLRVQLNFSAMASELEEVKRCMERKDKEKAHLASQVENLTRELENGEKQQLQMLDRLKEIQNHFDTCEAERKHADLQISELTRHAEDATKQAERYLSELQQSEALKEEAEKRREDLKLKAQESIRQWKLKHKKLERALEKQSETVDELTGKNNQILKEKDELKTQLYAALQQIENLRKELNDVLTKRALQEEELHSKEEKLRDIKSHQADLELEVKNSLDTIHRLESELKKQSKIQSQMKVEKAHLEEEIAELKKSQAQDKAKLLEMQESIKDLSAIRADLANKLAEEERAKKAVLKDLSDLTAQAKSRDEETATIITQLKLERDVHQRELKDLTSSLQSVKTKHEQNIQELMKHFKKEKSEAENHIRTLKAESLEEKNMAKIHRGQLEKLKSQCDRLTEELTQNENENKKLKLKYQCLKDQLEEREKHISIEEEHLRRMEEARLQLKDQLLCLETEQESILGVIGKEIDAACKTFSKDSVEKLKVFSSGPDIHYDPHRWLAESKTKLQWLCEELKERENREKNLRHQLMLCRQQLRNLTENKESELQCLFQQIERQEQLLDEIHREKRDLLEETQRKDEEMGSLQDRVIALETSTQVALDHLESVPEKLSLLEDFKDFRDSCSSSERTDGRYSKYRVRRNSLQHHQDDTKYRTKSFKGDRTFLEGSHTRGLDHSSSWQDHSRFLSSPRFSYVNSFTKRTVAPDSASNKEDATMNGTSSQPKKEEYGS [CEP128],0.351,-0.182
MAGARRLELGEALALGSGWRHACHALLYAPDPGMLFGRIPLRYAILMQMRFDGRLGFPGGFVDTQDRSLEDGLNRELREELGEAAAAFRVERTDYRSSHVGSGPRVVAHFYAKRLTLEELLAVEAGATRAKDHGLEVLGLVRVPLYTLRDGVGGLPTFLENSFIGSAREQLLEALQDLGLLQSGSISGLKIPAHH [NUDT16],0.0531,-0.184
MAGPLRAPLLLLAILAVALAVSPAAGSSPGKPPRLVGGPMDASVEEEGVRRALDFAVGEYNKASNDMYHSRALQVVRARKQIVAGVNYFLDVELGRTTCTKTQPNLDNCPFHDQPHLKRKAFCSFQIYAVPWQGTMTLSKSTCQDA [CST3],-0.0401,0.378
MAGPQPLALQLEQLLNPRPSEADPEADPEEATAARVIDRFDEGEDGEGDFLVVGSIRKLASASLLDTDKRYCGKTTSRKAWNEDHWEQTLPGSSDEEISDEEGSGDEDSEGLGLEEYDEDDLGAAEEQECGDHRESKKSRSHSAKTPGFSVQSISDFEKFTKGMDDLGSSEEEEDEESGMEEGDDAEDSQGESEEDRAGDRNSEDDGVVMTFSSVKVSEEVEKGRAVKNQIALWDQLLEGRIKLQKALLTTNQLPQPDVFPLFKDKGGPEFSSALKNSHKALKALLRSLVGLQEELLFQYPDTRYLVDGTKPNAGSEEISSEDDELVEEKKQQRRRVPAKRKLEMEDYPSFMAKRFADFTVYRNRTLQKWHDKTKLASGKLGKGFGAFERSILTQIDHILMDKERLLRRTQTKRSVYRVLGKPEPAAQPVPESLPGEPEILPQAPANAHLKDLDEEIFDDDDFYHQLLRELIERKTSSLDPNDQVAMGRQWLAIQKLRSKIHKKVDRKASKGRKLRFHVLSKLLSFMAPIDHTTMNDDARTELYRSLFGQLHPPDEGHGD [AATF],-2.12,0.788
MAGYLKLVCVSFQRQGFHTVGSRCKNRTGAEHLWLTRHLRDPFVKAAKVESYRCRSAFKLLEVNERHQILRPGLRVLDCGAAPGAWSQVAVQKVNAAGTDPSSPVGFVLGVDLLHIFPLEGATFLCPADVTDPRTSQRILEVLPGRRADVILSDMAPNATGFRDLDHDRLISLCLTLLSVTPDILQPGGTFLCKTWAGSQSRRLQRRLTEEFQNVRIIKPEASRKESSEVYFLATQYHGRKGTVKQ [FTSJ2],0.00974,0.0979
